From US20230097573A1 (LG CHEM, published 2023) come the findings set out here.

Test [1] addresses T1, Hu FcRn (BPS Bioscience) (human, UniProt P55899 24-297; P61769 21-119).
T1 construct: Bought recombinant protein coated on ELISA plates; also called human FcRn; human neonatal Fc receptor
The test is described as follows: optimized ELISA on FcRn, pH 6. For orientation: ELISA stands for enzyme-linked immunosorbent assay.

In test [2] the target is T2, hFcRn with a His-tag (human, UniProt P55899 24-297; P61769 21-119).
T2 construct: It may be the same product as m1; also called huFcRn (His tagged molecule, BPS); not shown: His-tag
T2 sequence (P55899 24-297 limits assumed, chain 1 of 2): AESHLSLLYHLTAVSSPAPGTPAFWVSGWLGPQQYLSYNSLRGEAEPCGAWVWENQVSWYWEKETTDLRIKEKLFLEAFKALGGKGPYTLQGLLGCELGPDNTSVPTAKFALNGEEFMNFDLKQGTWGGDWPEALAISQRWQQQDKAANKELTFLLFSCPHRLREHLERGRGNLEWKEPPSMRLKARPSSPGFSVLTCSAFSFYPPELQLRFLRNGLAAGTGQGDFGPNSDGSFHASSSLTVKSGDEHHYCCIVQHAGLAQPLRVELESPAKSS
T2 sequence (P61769 21-119 limits assumed, chain 2 of 2): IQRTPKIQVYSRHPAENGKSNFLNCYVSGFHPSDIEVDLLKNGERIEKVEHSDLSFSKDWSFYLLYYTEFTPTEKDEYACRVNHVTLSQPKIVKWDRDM
The test is described as follows: BLI (Octet), His-hFcRn on Ni-NTA biosensor, Affimer 40 nM, pH 7.4. The method, then:
(§1) A BLI (Bio-Layer Interferometry)-based binding assay was performed for AFFIMER® screening in which the affinity to FcRn varies depending on the pH. hFcRn with a His-tag was fixed to a Ni-NTA biosensor. Thereafter, in the hFcRn and the AFFIMER® candidate group, Ni²⁺ not bound to the hFcRn was blocked using His-SQT-gly with a high concentration, in which reactivity is absent. Then, the AFFIMER® candidate group diluted to the same concentration was reacted with the hFcRn. All affimers were analyzed at pH 6.0 and pH 7.4, and KD was determined with a 1:1 binding model.
A general note: BLI is a label-free optical method that tracks binding on a fibre tip over time.

Test [3] deals with T1, Hu FcRn (BPS Bioscience). As to the kind of experiment: optimized ELISA on FcRn, pH 7.4.
Test [4] deals with T2, hFcRn with a His-tag. As to the kind of experiment: BLI (Octet), His-hFcRn on Ni-NTA biosensor, Affimer 40 nM, pH 7.4, 1:1 model. The procedure: as §1
Test [5] deals with T2, hFcRn with a His-tag. As to the kind of experiment: BLI (Octet), His-hFcRn on Ni-NTA biosensor, Affimer 40 nM, pH 6.0. The method, then: as §1
In test [6] the target is T2, hFcRn with a His-tag. The test is described as follows: BLI (Octet), His-hFcRn on Ni-NTA biosensor, Affimer 40 nM, pH 6.0, 1:1 model. The procedure: as §1
The target of test [7] is T2, hFcRn with a His-tag. As to the kind of experiment: BLI (Octet); ratio of KD at pH 7.4 to KD at pH 6.0. The method, then:
as §1

By EC50 is commonly meant the concentration that produces a half-maximal response. Read a low EC50 as higher potency in that assay. As a reminder, the Kd is the equilibrium constant for the complex coming apart.

T1 sequence (P55899 24-297 limits assumed, chain 1 of 2): as the sequence (P55899 24-297 limits assumed, chain 1 of 2) above
T1 sequence (P61769 21-119 limits assumed, chain 2 of 2): as the sequence (P61769 21-119 limits assumed, chain 2 of 2) above

B1: FcRn-16 (designed binder)
chain: MIPRGLSEAKPATPEIQEIVDKVKPQLEEKTNETYGKLEAVQYKTQVLAKHHHHKHQHSTNYYIKVRAGDNKYMHLKVFNGPVFLHNESHQADRVLTGYQVDKNKDDELTGFHHHHHH
notes: AFFIMER (stefin A variant)
As for B1, the EC50 came out at 1020 nM with Hu FcRn (BPS Bioscience) [1] and 48600 nM with Hu FcRn (BPS Bioscience) [3]. Also, the Response came to 0.631 with hFcRn with a His-tag [2] and 1.07 with hFcRn with a His-tag [5]. In addition, the Kd with hFcRn with a His-tag [4] was found to be 83.3 nM; with hFcRn with a His-tag [6], 20.5 nM.

B2: FcRn-12 (designed binder)
chain: MIPRGLSEAKPATPEIQEIVDKVKPQLEEKTNETYGKLEAVQYKTQVLAKVKTHDHQRSTNYYIKVRAGDNKYMHLKVFNGPIHQHHSQDWADRVLTGYQVDKNKDDELTGFHHHHHH
notes: AFFIMER (stefin A variant)
Consider B2, for which the EC50 in the test with Hu FcRn (BPS Bioscience) [1] is 262 nM; in the test with Hu FcRn (BPS Bioscience) [3], 15700 nM. The Response in the test with hFcRn with a His-tag [2] came to 0.582; with hFcRn with a His-tag [5], 0.836. In addition, the results for the Kd with hFcRn with a His-tag [4] and in the test with hFcRn with a His-tag [6] were 123 nM and 28.4 nM, respectively. Moreover, in the test with hFcRn with a His-tag [7], the “pH 7.4/pH 6.0 (KD ratio)” value is 4.3.

B3: FcRn-176 (designed binder)
chain: MIPRGLSEAKPATPEIQEIVDKVKPQLEEKTNETYGKLEAVQYKTQVLAGRHHESHKSSTNYYIKVRAGDNKYMHLKVFNGPFQHKLHKHHADRVLTGYQVDKNKDDELTGFHHHHHH
notes: AFFIMER (stefin A variant)
For the molecule B3, the results for the EC50 with Hu FcRn (BPS Bioscience) [1] and with Hu FcRn (BPS Bioscience) [3] were 4480 nM and 78900 nM, respectively. Further, the Response was determined as 0.595 in the test with hFcRn with a His-tag [2] and 1.02 with hFcRn with a His-tag [5]. The Kd was 57.9 nM in the test with hFcRn with a His-tag [4] and 10.5 nM with hFcRn with a His-tag [6]. In addition, the “pH 7.4/pH 6.0 (KD ratio)” value in the test with hFcRn with a His-tag [7] is 5.5.

B4: FcRn-109 (designed binder)
chain: MIPRGLSEAKPATPEIQEIVDKVKPQLEEKTNETYGKLEAVQYKTQVLARPHNRDSHRSTNYYIKVRAGDNKYMHLKVFNGPDRKHRKHWHADRVLTGYQVDKNKDDELTGFHHHHHH
notes: AFFIMER (stefin A variant)
With B4, the EC50 with Hu FcRn (BPS Bioscience) [1] was found to be 570 nM; with Hu FcRn (BPS Bioscience) [3], 15700 nM. The Response with hFcRn with a His-tag [2] was found to be 0.602; in the test with hFcRn with a His-tag [5], 1.16. Also, the Kd in the test with hFcRn with a His-tag [4] stood at 61.2 nM; with hFcRn with a His-tag [6], 9.27 nM. In addition, in the test with hFcRn with a His-tag [7], the “pH 7.4/pH 6.0 (KD ratio)” value worked out at 6.6.

B5: FcRn-18 (designed binder)
chain: MIPRGLSEAKPATPEIQEIVDKVKPQLEEKTNETYGKLEAVQYKTQVLAETPHERHKTSTNYYIKVRAGDNKYMHLKVFNGPKRWLKHHAHADRVLTGYQVDKNKDDELTGFHHHHHH
notes: AFFIMER (stefin A variant)
On to B5, for which the EC50 worked out at 327 nM in the test with Hu FcRn (BPS Bioscience) [1] and 19700 nM with Hu FcRn (BPS Bioscience) [3]. Besides, the Response with hFcRn with a His-tag [2] stood at 0.794; in the test with hFcRn with a His-tag [5], 1.2. For the same molecule, the values for the Kd with hFcRn with a His-tag [4] and in the test with hFcRn with a His-tag [6] were 65 nM and 16 nM, respectively.

B6: FcRn-48 (designed binder)
chain: MIPRGLSEAKPATPEIQEIVDKVKPQLEEKTNETYGKLEAVQYKTQVLAKPKYHHHDISTNYYIKVRAGDNKYMHLKVFNGPGHHAKPHRWADRVLTGYQVDKNKDDELTGFHHHHHH
notes: AFFIMER (stefin A variant)
B6: the values for the EC50 with Hu FcRn (BPS Bioscience) [1] and in the test with Hu FcRn (BPS Bioscience) [3] were 1500 nM and 79900 nM, respectively. The Response with hFcRn with a His-tag [2] was determined as 0.803; in the test with hFcRn with a His-tag [5], 1.44. The Kd with hFcRn with a His-tag [4] was 59.3 nM; with hFcRn with a His-tag [6], 8.76 nM. Further, the “pH 7.4/pH 6.0 (KD ratio)” value with hFcRn with a His-tag [7] amounted to 6.8.

B7: FcRn-88 (designed binder)
chain: MIPRGLSEAKPATPEIQEIVDKVKPQLEEKTNETYGKLEAVQYKTQVLAHHTKHHSRWSTNYYIKVRAGDNKYMHLKVFNGPVNHISHAPIADRVLTGYQVDKNKDDELTGFHHHHHH
notes: AFFIMER (stefin A variant)
As to B7, the values for the EC50 in the test with Hu FcRn (BPS Bioscience) [1] and in the test with Hu FcRn (BPS Bioscience) [3] were 967 nM and 23300 nM, respectively. Besides, the Response was 0.71 in the test with hFcRn with a His-tag [2] and 1.12 with hFcRn with a His-tag [5]. The Kd was determined as 82.8 nM with hFcRn with a His-tag [4] and 18.7 nM with hFcRn with a His-tag [6]. For the same molecule, the “pH 7.4/pH 6.0 (KD ratio)” value with hFcRn with a His-tag [7] amounted to 4.4.
